Non-standard residues stand in square brackets, D forms with d. No end group written: not given here. Ala(4-thiazolyl) = N[C@@H](Cc1cscn1)C(=O)O; Nle = CCCC[C@H](N)C(=O)O
B1: SEQ ID NO: 4 (peptide)
peptide: [Ala(4-thiazolyl)]SQGTFTSDLSKQLESRRAQEFIEWLLAGGPESGAPPPS-OH
modifications: N-terminus assumed
SMILES: CC[C@H](C)[C@H](NC(=O)[C@H](Cc1ccccc1)NC(=O)[C@H](CCC(=O)O)NC(=O)[C@H](CCC(N)=O)NC(=O)[C@H](C)NC(=O)[C@H](CCCNC(=N)N)NC(=O)[C@H](CCCNC(=N)N)NC(=O)[C@H](CO)NC(=O)[C@H](CCC(=O)O)NC(=O)[C@H](CC(C)C)NC(=O)[C@H](CCC(N)=O)NC(=O)[C@H](CCCCN)NC(=O)[C@H](CO)NC(=O)[C@H](CC(C)C)NC(=O)[C@H](CC(=O)O)NC(=O)[C@H](CO)NC(=O)[C@@H](NC(=O)[C@H](Cc1ccccc1)NC(=O)[C@@H](NC(=O)CNC(=O)[C@H](CCC(N)=O)NC(=O)[C@H](CO)NC(=O)[C@@H](N)Cc1cscn1)[C@@H](C)O)[C@@H](C)O)C(=O)N[C@@H](CCC(=O)O)C(=O)N[C@@H](Cc1c[nH]c2ccccc12)C(=O)N[C@@H](CC(C)C)C(=O)N[C@@H](CC(C)C)C(=O)N[C@@H](C)C(=O)NCC(=O)NCC(=O)N1CCC[C@H]1C(=O)N[C@@H](CCC(=O)O)C(=O)N[C@@H](CO)C(=O)NCC(=O)N[C@@H](C)C(=O)N1CCC[C@H]1C(=O)N1CCC[C@H]1C(=O)N1CCC[C@H]1C(=O)N[C@@H](CO)C(=O)O
B2: SEQ ID NO: 3 (peptide)
peptide: [Ala(4-thiazolyl)]SQGTFTSDLSKQ[Nle]ESRRAQDFIEWLLATGPESGAPPPS-OH
modifications: N-terminus assumed
SMILES: CCCC[C@H](NC(=O)[C@H](CCC(N)=O)NC(=O)[C@H](CCCCN)NC(=O)[C@H](CO)NC(=O)[C@H](CC(C)C)NC(=O)[C@H](CC(=O)O)NC(=O)[C@H](CO)NC(=O)[C@@H](NC(=O)[C@H](Cc1ccccc1)NC(=O)[C@@H](NC(=O)CNC(=O)[C@H](CCC(N)=O)NC(=O)[C@H](CO)NC(=O)[C@@H](N)Cc1cscn1)[C@@H](C)O)[C@@H](C)O)C(=O)N[C@@H](CCC(=O)O)C(=O)N[C@@H](CO)C(=O)N[C@@H](CCCNC(=N)N)C(=O)N[C@@H](CCCNC(=N)N)C(=O)N[C@@H](C)C(=O)N[C@@H](CCC(N)=O)C(=O)N[C@@H](CC(=O)O)C(=O)N[C@@H](Cc1ccccc1)C(=O)N[C@H](C(=O)N[C@@H](CCC(=O)O)C(=O)N[C@@H](Cc1c[nH]c2ccccc12)C(=O)N[C@@H](CC(C)C)C(=O)N[C@@H](CC(C)C)C(=O)N[C@@H](C)C(=O)N[C@H](C(=O)NCC(=O)N1CCC[C@H]1C(=O)N[C@@H](CCC(=O)O)C(=O)N[C@@H](CO)C(=O)NCC(=O)N[C@@H](C)C(=O)N1CCC[C@H]1C(=O)N1CCC[C@H]1C(=O)N1CCC[C@H]1C(=O)N[C@@H](CO)C(=O)O)[C@@H](C)O)[C@@H](C)CC

Assays:
Assay in all cases: cell-based or functional assay
human glucagon receptor [1] = target: T1, human glucagon receptor (human, UniProt P47871 26-477)
T1 sequence (P47871 26-477): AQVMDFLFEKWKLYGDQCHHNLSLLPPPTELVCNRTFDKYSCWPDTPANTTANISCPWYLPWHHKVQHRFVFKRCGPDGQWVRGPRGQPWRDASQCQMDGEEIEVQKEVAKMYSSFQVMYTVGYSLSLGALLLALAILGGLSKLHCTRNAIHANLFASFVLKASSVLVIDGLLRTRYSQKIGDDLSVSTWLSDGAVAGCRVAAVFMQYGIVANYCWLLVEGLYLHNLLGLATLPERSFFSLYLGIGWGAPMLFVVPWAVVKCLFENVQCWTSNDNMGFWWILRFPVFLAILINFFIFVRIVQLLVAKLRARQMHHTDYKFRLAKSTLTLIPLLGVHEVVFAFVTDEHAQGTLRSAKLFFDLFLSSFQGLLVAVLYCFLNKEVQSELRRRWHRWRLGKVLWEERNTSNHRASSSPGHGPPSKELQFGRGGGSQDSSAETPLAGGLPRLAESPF

human GLP-1 receptor [2] = target: T2, human GLP-1 receptor (human, UniProt P43220 24-463)
human glucagon receptor [3] = target: T1, human glucagon receptor; remark: listed apart in the source
human GLP-1 receptor [4] = target: T2, human GLP-1 receptor; remark: listed apart in the source

Binder | EC50 hGlucagon-R, cAMP formation (human glucagon receptor [1]) [nM] | EC50 hGLP-1R, cAMP formation (human GLP-1 receptor [2]) [nM] | EC50 hGLUC R [pM], cAMP formation (human glucagon receptor [3]) [pM] | EC50 hGLP-1 R [pM], cAMP formation (human GLP-1 receptor [4]) [pM]
B1 | 0.0007 | 3.3 | 0.7 | 3300
B2 | 0.0018 | 44.3 | 1.8 | 44300

— US20150368311A1 (Sanofi, published 2015)
